These results are taken from patent US20120220540A1, “SYNBODIES TO AKT1” (ARIZONA BOARD OF REGENTS FOR AND ON BEHALF OF ARIZONA STATE …, priority 2009, published 2012).

Square brackets hold non-standard residues; d marks the D form. Ends that are not written are not given here. * marks the point of attachment. Biotin = O=C1N[C@H]2[C@H](CS[C@H]2CCCCC(=O)*)N1; Oct = octanoic acid spacer; oct = octanoic acid spacer; StBu = CC(C)(C)S*

Assay [1] concerns the target AKT1 (Homo sapiens, UniProt P31749). As to the kind of experiment: KD of synbody variants (Tables 2 and 4). The class given is binding. On the set-up: key to KD (nM): n.b. = no binding. The procedure:
Selection of screening of amino acid variants has been described above. Variants including modifications of conjugation chemistry, linker, spacers or adjunct moieties can be screened for retention of binding to AKT1. In some methods, either the AKT1 or the synbody is immobilized. Optionally binding of a variant is tested in competition with the lead AKT1 synbody discussed above. In one format, AKT1 is immobilized to a support and synbody variants are tested for binding by surface plasmon resonance.
The following synbodies have the same peptides as the lead synbody and are synthesized off of a lysine core but include the addition of different functional groups synthesized between the C-terminus of the peptide and the amine groups of the lysine scaffold (Table 2). Synbodies were conjugated with either a C-terminal cysteine protected against disulfide formation using a sulfo-tert-butyl group, or with different biotin-conjugated lysines where the spacer between the lysine and the backbone varied. For example, in synbody 5 the biotin was attached to the amino group of the side chain, synbody 6 used a caproic acid spacer, while synbody 7 used an eleven-unit polyethylene glycol spacer.
The following mutant forms of the lead peptide have been made in which either one or more amino acids are substituted or the orientation of the peptides on the linker is reversed (Table 4).

For assay [2], the target named is AKT3 (Homo sapiens, UniProt Q9Y243). As to the kind of experiment: Immunoprecipitation of purified AKT3 from cell lysate with synbody (Western blot). Format: binding. Particulars: immunoprecipitate of purified 250 ng AKT3 from 500 mg of cell lysate. The procedure: (§1) The synbody was tested for binding to AKT1 and in some experiments, AKT2 and AKT3.
AKT3 (Homo sapiens, UniProt Q9Y243), sequence (Q9Y243 whole entry): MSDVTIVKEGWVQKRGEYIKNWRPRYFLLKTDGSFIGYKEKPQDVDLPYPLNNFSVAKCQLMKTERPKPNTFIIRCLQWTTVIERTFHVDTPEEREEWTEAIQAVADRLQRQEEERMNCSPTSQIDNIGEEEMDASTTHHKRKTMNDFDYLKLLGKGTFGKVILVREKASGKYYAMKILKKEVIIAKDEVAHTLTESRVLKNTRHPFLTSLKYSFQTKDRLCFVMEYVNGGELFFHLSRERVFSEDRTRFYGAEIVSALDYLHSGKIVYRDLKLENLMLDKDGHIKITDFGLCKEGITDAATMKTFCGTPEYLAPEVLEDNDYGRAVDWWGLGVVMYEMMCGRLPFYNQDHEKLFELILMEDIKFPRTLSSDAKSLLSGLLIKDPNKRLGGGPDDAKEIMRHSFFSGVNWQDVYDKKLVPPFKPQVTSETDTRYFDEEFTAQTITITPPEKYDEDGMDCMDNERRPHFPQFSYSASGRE
On the technique in general: Immunoblotting shows a protein as a band on a membrane.

Assay [3] addresses AKT2 (Homo sapiens, UniProt P31751). As to the kind of experiment: Immunoprecipitation of purified AKT2 from cell lysate with synbody (Western blot). The class given is binding. The settings on record: immunoprecipitate of purified 250 ng AKT2 from 500 mg of cell lysate. Here is the method: as §1
The target of assay [4] is T1, AKT1 (human, UniProt P31749 1-480).
T1 construct: also called human AKT1; AKT1_HUMAN
T1 sequence (P31749 whole entry): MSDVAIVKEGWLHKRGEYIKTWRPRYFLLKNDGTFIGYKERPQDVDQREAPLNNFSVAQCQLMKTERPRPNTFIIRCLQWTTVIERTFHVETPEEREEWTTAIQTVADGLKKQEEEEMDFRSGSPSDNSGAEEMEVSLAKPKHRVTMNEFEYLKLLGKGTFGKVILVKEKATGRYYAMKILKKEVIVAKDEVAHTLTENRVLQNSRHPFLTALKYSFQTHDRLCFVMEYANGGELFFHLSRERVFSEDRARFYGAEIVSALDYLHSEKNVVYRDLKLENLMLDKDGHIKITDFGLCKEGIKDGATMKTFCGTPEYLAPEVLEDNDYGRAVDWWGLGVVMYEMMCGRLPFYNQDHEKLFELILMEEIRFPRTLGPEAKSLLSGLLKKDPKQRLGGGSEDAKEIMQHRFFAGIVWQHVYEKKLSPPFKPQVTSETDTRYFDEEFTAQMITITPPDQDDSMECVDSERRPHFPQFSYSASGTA
Put plainly: method not stated (Table 2).

The target of assay [5] is T1, AKT1. Put plainly: method not stated (Table 4).
The target in assay [6] is T1, AKT1. As to the kind of experiment: SPR, 12.5 and 6.25 nM synbody injected over AKT1 surface, 1:1 kinetic fit; SPR, synbody injected over AKT1 surface, 1:1 kinetic fit. The procedure: as §1
In assay [7] the target is T1, AKT1. Put plainly: pull-down of S35-labeled AKT1 with synbody immobilized via biotin on magnetic beads, 1:1 fit; pull-down of S35-labeled AKT1, synbody on magnetic bead via biotin. Here is the method:
as §1

For assay [8], the target named is T1, AKT1. Put plainly: SPR, synbody at 12.5 and 6.25 nM injected over immobilized AKT1, 1:1 kinetic fit. The procedure: as §1
For orientation: Surface plasmon resonance follows binding to a sensor surface in real time, without labels.

The target in assay [9] is AKT3 (human, UniProt Q9Y243 1-479, limits assumed). As to the kind of experiment: immunoprecipitation of 250 ng purified AKT3 from cell lysate with the synbody, Western blot. Here is the method:
as §1

For assay [10], the target named is AKT2 (human, UniProt P31751 1-481). As to the kind of experiment: immunoprecipitation of 250 ng purified AKT2 from cell lysate with the synbody, Western blot. Here is the method: as §1
AKT2 (human, UniProt P31751 1-481), sequence (P31751 whole entry): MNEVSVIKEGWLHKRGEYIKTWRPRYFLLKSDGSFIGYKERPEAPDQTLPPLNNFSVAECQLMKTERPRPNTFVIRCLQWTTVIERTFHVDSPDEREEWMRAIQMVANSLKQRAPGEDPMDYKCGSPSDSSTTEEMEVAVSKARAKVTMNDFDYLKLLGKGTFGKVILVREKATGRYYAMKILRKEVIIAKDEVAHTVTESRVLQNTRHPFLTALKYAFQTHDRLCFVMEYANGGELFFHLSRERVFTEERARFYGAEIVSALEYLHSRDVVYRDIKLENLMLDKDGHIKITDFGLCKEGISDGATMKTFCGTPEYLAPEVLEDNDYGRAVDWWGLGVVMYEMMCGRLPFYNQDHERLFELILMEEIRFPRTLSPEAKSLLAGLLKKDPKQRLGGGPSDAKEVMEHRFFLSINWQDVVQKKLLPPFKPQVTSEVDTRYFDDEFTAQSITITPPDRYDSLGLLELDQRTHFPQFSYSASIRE
The mark [11] stands for this setting: Table 2, synbodies constructed from a lysine scaffold.

AKT1 (Homo sapiens, UniProt P31749), sequence (P31749 whole entry): as the sequence (P31749 whole entry) above
AKT2 (Homo sapiens, UniProt P31751), sequence (P31751 whole entry): as the sequence (P31751 whole entry) above
AKT3 (human, UniProt Q9Y243 1-479, limits assumed), sequence (Q9Y243 whole entry): as the sequence (Q9Y243 whole entry) above

The molecule `CC[C@H](C)[C@H](NC(=O)[C@H](Cc1c[nH]cn1)NC(=O)[C@H](C)NC(=O)[C@H](Cc1c[nH]c2ccccc12)NC(=O)CNC(=O)[C@H](CCCNC(=N)N)NC(=O)[C@@H](N)Cc1ccccc1)C(=O)N[C@@H](Cc1ccccc1)C(=O)N[C@@H](Cc1ccccc1)C(=O)NCC(=O)N1CCC[C@H]1C(=O)N[C@@H](Cc1c[nH]cn1)C(=O)N[C@H](C(=O)N[C@H](C(=O)N[C@@H](Cc1ccc(O)cc1)C(=O)N[C@@H](CCCNC(=N)N)C(=O)NCC(=O)NCC(=O)N[C@@H](CO)C(=O)NCC(=O)NCCCC[C@H](NC(=O)CNC(=O)[C@H](CO)NC(=O)CNC(=O)[C@H](Cc1ccc(O)cc1)NC(=O)[C@H](CCCNC(=N)N)NC(=O)[C@H](CC(N)=O)NC(=O)[C@H](Cc1ccc(O)cc1)NC(=O)[C@H](C)NC(=O)[C@H](Cc1c[nH]cn1)NC(=O)[C@H](CCCNC(=N)N)NC(=O)[C@@H](NC(=O)[C@H](CCC(N)=O)NC(=O)[C@H](CCCNC(=N)N)NC(=O)[C@H](CCC(N)=O)NC(=O)[C@@H]1CCCN1C(=O)[C@@H](NC(=O)[C@@H](NC(=O)[C@H](CCCCN)NC(=O)[C@H](Cc1c[nH]cn1)NC(=O)[C@H](C)N)C(C)C)C(C)C)[C@@H](C)CC)C(=O)N[C@@H](CSSC(C)(C)C)C(N)=O)[C@@H](C)CC)C(C)C` [Akt26-23KC] came in with a Kd in assay [1] (setting [11]) of 4 nM.

For the molecule “AHKVVPQRQIRHAYNRYGSG(oct)KCFRGWAHIFFGPHVIYRGGSG(oct) (AHKVVPQRQIRHAYNRYGSG[oct]KCFRGWAHIFFGPHVIYRGGSG-oct; not fully specified; printed as AHKVVPQRQIRHAYNRYGSG(oct)KCFRGWAHIFFGPHVIYRGGSG(oct); numbers in words are those of the source; also: branched on Lys21 side chain (linear writing)) [Akt26-(Oct)-23(Oct)KC]”, in [1] (setting [11]), the “KD (nM)” value was “n.b”.

Consider `CC[C@H](C)[C@H](NC(=O)[C@H](Cc1c[nH]cn1)NC(=O)[C@H](C)NC(=O)[C@H](Cc1c[nH]c2ccccc12)NC(=O)CNC(=O)[C@H](CCCNC(=N)N)NC(=O)[C@@H](N)Cc1ccccc1)C(=O)N[C@@H](Cc1ccccc1)C(=O)N[C@@H](Cc1ccccc1)C(=O)NCC(=O)N1CCC[C@H]1C(=O)N[C@@H](Cc1c[nH]cn1)C(=O)N[C@H](C(=O)N[C@H](C(=O)N[C@@H](Cc1ccc(O)cc1)C(=O)N[C@@H](CCCNC(=N)N)C(=O)NCC(=O)NCC(=O)N[C@@H](CO)C(=O)NCC(=O)NCCCC[C@H](NC(=O)CNC(=O)[C@H](CO)NC(=O)CNC(=O)[C@H](Cc1ccc(O)cc1)NC(=O)[C@H](CCCNC(=N)N)NC(=O)[C@H](CC(N)=O)NC(=O)[C@H](Cc1ccc(O)cc1)NC(=O)[C@H](C)NC(=O)[C@H](Cc1c[nH]cn1)NC(=O)[C@H](CCCNC(=N)N)NC(=O)[C@@H](NC(=O)[C@H](CCC(N)=O)NC(=O)[C@H](CCCNC(=N)N)NC(=O)[C@H](CCC(N)=O)NC(=O)[C@@H]1CCCN1C(=O)[C@@H](NC(=O)[C@@H](NC(=O)[C@H](CCCCN)NC(=O)[C@H](Cc1c[nH]cn1)NC(=O)[C@H](C)N)C(C)C)C(C)C)[C@@H](C)CC)C(=O)N[C@@H](CCCCNC(=O)CCCC[C@@H]1SC[C@@H]2NC(=O)N[C@@H]21)C(N)=O)[C@@H](C)CC)C(C)C` [lead synbody], for which, in assay [2], the “cross-reactivity with AKT3” value is recorded as “little cross-reactivity”. The “cross-reactivity with AKT2” value in [3] was “little cross-reactivity”.

As to “AWKVVPQRQIRHAYNRYGSGKCFRGWAHIFFGPHVIYRGGSG [m3-Akt26-23 KC]”, in [1] (Table 4, synbodies constructed from mutant peptides on lysine scaffold), the “KD (nM)” value is “n.b”.

With “AHKVVPQRQIRHAYNRYGSGKCFRGWAHIFFGPHVIYRGGSG(oct) (AHKVVPQRQIRHAYNRYGSGKCFRGWAHIFFGPHVIYRGGSG-oct; not fully specified; printed as AHKVVPQRQIRHAYNRYGSGKCFRGWAHIFFGPHVIYRGGSG(oct); also: branched on Lys21 side chain (linear writing)) [Akt26-23(Oct)KC]”, the “KD (nM)” value in assay [1] (setting [11]) is given as “n.b”.

B1: Akt26(Oct)-23KC (designed binder)
chain 1: AHKVVPQRQIRHAYNRYGSG[Oct]KC(StBu)
chain 2: FRGWAHIFFGPHVIYRGGSG
modifications: numbers in words are those of the source; also: bond at chain A 21 to a chain's C-terminus
notes: Branched molecule; They shift if the listing holds a placeholder for the spacer
In assay [4], B1 displayed a Kd of 6 nM.

B2: Akt26-23(hex)KC (designed binder)
chain 1: AHKVVPQRQIRHAYNRYGSGKC(StBu)
chain 2: FRGWAHIFFGPHVIYRGGSG
modifications: not fully specified (C-terminus); also: linker at chain A 21 to a chain's C-terminus via hex
notes: Branched molecule
Regarding B2, in assay [4], the affinity, expressed as Kd, was 3 nM.

B3: Akt26-23KKbiotin (designed binder)
chain 1: AHKVVPQRQIRHAYNRYGSGKK(Biotin)
chain 2: FRGWAHIFFGPHVIYRGGSG
modifications: also: bond at chain A 21 to a chain's C-terminus
notes: I split it into two chains; The name runs over rows r11 and r12; also called synbody 5
As to B3, the Kd in [4] was 4 nM.

B4: m1-Akt26-23 KC (designed binder)
chain 1: AHKVVPQRQMRHAYSRYGSGKC
chain 2: FRGWAHIFFGPHVIYRGGSG
modifications: also: bond at chain A 21 to a chain's C-terminus
notes: Mutant peptide on a lysine scaffold
For the molecule B4, the affinity in [5], expressed as Kd, was 15 nM.

B5: m2-Akt26-23 KC (designed binder)
chain 1: AHKVVYQRQIRFAYNRYGSGKC
chain 2: FRGWAHIFFGPHVIYRGGSG
modifications: also: bond at chain A 21 to a chain's C-terminus
notes: Mutant peptide on a lysine scaffold; Branched molecule, which I split into two chains
Regarding B5, the Kd in [5] came to 5 nM.

B6: m5-Akt26-23 KC (designed binder)
chain 1: AWKVVPQRWIRHAYNRYGSGKC
chain 2: FRGWAHIFFGPHVIYRGGSG
modifications: also: bond at chain A 21 to a chain's C-terminus
notes: as for B5
On to B6, for which, in assay [5], the Kd was found to be 8 nM.

B7: lead synbody (Akt26 and Akt23 on a lysine linker, second lysine with biotin) (designed binder)
chain 1: AHKVVPQRQIRHAYNRYGSGKK
chain 2: FRGWAHIFFGPHVIYRGGSG
modifications: not fully specified (some residues); also: bond at chain A 21 to a chain's C-terminus
notes: also called the synbody; first generation synbody
For B7, the Kd in assay [6] turned out to be 1.49 nM; in [7], 4.9 nM. Besides, in [8], the koff was 0.000295 s⁻¹. The binding result in assay [9] and in assay [10] was “binds” in each case.

B8: m6-Akt26-23 KC (designed binder)
chain 1: AWKVVPQRWIRYAYNRYGSGKC
chain 2: FRGWAHIFFGPHVIYRGGSG
modifications: also: bond at chain A 21 to a chain's C-terminus
notes: as for B5
Regarding B8, the Kd in assay [5] was about 10 nM.

B9: m4-Akt26-23 KC (designed binder)
chain 1: AHKVVPQRWIRHAYNRYGSGKC
chain 2: FRGWAHIFFGPHVIYRGGSG
modifications: also: bond at chain A 21 to a chain's C-terminus
notes: as for B5
Consider B9, for which the Kd in [5] amounted to 5 nM.

Broadly, the Kd is a measure of binding affinity in units of concentration. A word on the koff: it is the rate constant with which the complex falls apart.
